The values that follow come from patent US20260027179A1, “ANTI-SYNUCLEINOPATHY PEPTIDE AND METHODS TO TREAT NEURODEGENERATIVE DISEASES” (University of British Columbia, priority 2021, published 2026).

One test concerns 14-3-3. The experiment in a line: 14-3-3 level in cortical cultures, immunoblot. Type of test: cell-based, rat. Conditions: 50 μM, 24 hrs. How it is done: (§1) Primary rat neuron cultures were prepared from embryos of pregnant Sprague-Dawley rats (E18). The experimental protocol was approved by the University of British Columbia Animal Care Committee. Briefly, the cortical tissue or ventral midbrain tissue was isolated into ice cold HBSS (Invitrogen, 14170-112) and then digested with 0.25% trypsin-EDTA at 37° C. for 30 min. After washing with warm DMEM (supplemented with 10% FBS) three times, neurons were suspended in neuron culture media and dissociated by trituration using varying sizes of pipettes. Neurons were then centrifuged, and the pellet was re-suspended in culture media, washed twice with culture media, and plated on the poly-D-lysine-coated plates. Neuron culture was maintained in the 37° C. incubator with 95% O2 and 5% CO2. The morning after culturing, 2/3 of the neuron culture media was replaced with fresh neuron culture media. Media was then replaced every 3-4 days. […]
(§2) Brain tissues or cultured cells were lysed on ice in the lysis buffer and then the solution was centrifuged at 14,000 rpm for 10 min at 4° C. Next, the supernatant was collected and protein concentrations were determined using a BCA protein assay kit (Thermo Scientific, 23227). […] The band density of each protein was quantified by the Bio-Rad Quantity One software and the relative optical density was analyzed relative to the loading control β-actin on the same membrane.
On the technique in general: In western blotting, separated proteins are transferred to a membrane and probed.

The next test concerns the target T1, human A53T α-synuclein (Homo sapiens, UniProt P37840, A53T).
T1 construct: tissue The Jackson Laboratory 004479; host or cells: brain of M83 hemizygous transgenic mice
In words: Brain α-synuclein ELISA in M83 transgenic mice after i.p. injection. Conditions: 40 mg/kg i.p. The test is classed as in vivo, mouse. The method, then: Tat-βsyn-degron peptide was also shown to decrease α-synuclein levels in vivo, using M83 transgenic mice that overexpress mutant human A53T α-synuclein. M83 mice, injected intra-peritoneally (i.p.) with 40 mg/kg Tat-βsyn-degron peptide, were sacrificed at time points of 6, 12, 24, and 48 hrs and α-synuclein levels in the brain were measured by ELISA.
Male M83 hemizygous mice overexpressing the human A53T α-synuclein mutant (12 weeks old, 25-30 g, 004479, The Jackson Laboratory) were housed individually and maintained on a 12/12 hrs light/dark cycle at 22° C. ambient temperature and with unlimited access to food and water. Housing, breeding, and procedures were performed according to the Canadian Council on Animal Care and were approved by the McGill University Animal Care Committee.
Brains were lysed (1 g tissue per 3 mL solution) in a buffer solution (50 mM Tris pH 8, 150 mM NaCl, 5 mM EDTA, 1% NP-40, 0.5% sodium deoxycholate, 0.1% SDS, protease and inhibitor cocktail [aprotinin, leupeptin and benzamidine], and phosphatase inhibitor cocktail) on ice. Lysates were homogenized at 1,600 g several times, sonicated and finally centrifuged at 100,000 g for 30 min. The supernatant was collected and processed with the Human α-synuclein ELISA kit (KHB0061, ThermoFisher Scientific) and analyzed with a Tecan microplate reader (Tecan Infinite M200 Pro, life science). The level of α-synuclein was expressed as ng/ml total sample.
Background: ELISA stands for enzyme-linked immunosorbent assay.

Test [1] has as its target T2, endogenous α-synuclein (Rattus norvegicus, UniProt P37377).
T2 construct: endogenous in cells; host or cells: primary rat cortical neurons (14 DIV) and primary rat ventral midbrain neurons (3 DIV)
In words: α-synuclein level in MPP+-treated ventral midbrain cultures, immunoblot. The test is classed as cell-based. Conditions: 25 μM, 48 hrs, MPP+ 20 μM. The method, then:
as §1, §2

The target of another test is T3, α-synuclein (Mus musculus, UniProt O55042).
T3 construct: tissue Charles River; host or cells: ventral midbrain and striatum of C57BL/6 mice
The experiment in a line: MPTP mouse model, α-synuclein immunoblotting of brain tissue. Type of test: in vivo. The note with it: MPTP mice, 6 μmol/kg i.p. twice a day for 12 days, immunoblot. The method, then:
C57BL/6 mice were i.p. injected with 30 mg/kg parkinsonian toxin MPTP (or saline as control), once per day for 5 consecutive days, to induce dopaminergic neuron damage. The effects of MPTP administration on mouse rotarod performance and damage to dopaminergic neurons were then analyzed 1 week after the last injection of MPTP. To determine the effect of α-synuclein knockdown in protecting dopaminergic neurons against MPTP, the Tat-βsyn-degron peptide or its control Tat-βsyn (6 μmol/kg; i.p.) was used in some animals twice a day for 12 days, beginning the first day of MPTP injection. […] The striatum is a region that receives dopaminergic neuronal projections from the substantia nigra and is also deeply affected in PD. […]
as §2

In test [2] the target is T4, endogenous α-synuclein (Mus musculus, UniProt O55042).
T4 construct: from tissue; host or cells: kidney, spleen, ventral midbrain, striatum
The experiment in a line: α-synuclein expression in peripheral and brain tissues after peptide injection. The test is classed as in vivo. Conditions: 6 μmol/kg, i.p., 6 hours after peptide injection.

On to “YGRKKRRQRRRRTKSGVYLVGRRRG (The sequence is synthesized (YGRKKRRQRRRRTKSGVYLVGRRRG)) [Tat-βsyn-degron]”, for which, in the test with 14-3-3, the “expression level of 14-3-3” value is “did not affect the expression levels”. In addition, the “time of peak effect on brain α-synuclein” value with human A53T α-synuclein is listed as “around 24 hrs”. For the same sequence, the “α-synuclein levels in the brain (ELISA)” value in the test with human A53T α-synuclein (12 hrs) is recorded as “reduction of α-synuclein levels”. The “α-synuclein levels in the brain (ELISA)” value with human A53T α-synuclein (24 hrs) is given as “reduction of α-synuclein levels”. Further, the “endogenous α-synuclein protein levels” value in the test with endogenous α-synuclein [1] is “induced a robust reduction in endogenous α-synuclein protein levels”. Moreover, in the test with α-synuclein, the α-synuclein in striatum entry is given as “induced significant α-synuclein degradation” and the “α-synuclein in substantia nigra-containing ventral midbrain” value is “induced significant α-synuclein degradation”. Further, in the test with endogenous α-synuclein [2], the “α-synuclein expression in the kidney” value was “significantly reduce the α-synuclein expression”, the “α-synuclein expression in the spleen” value is listed as “significantly reduce the α-synuclein expression”, the “α-synuclein expression in the striatum” value was “significantly reduce the α-synuclein expression” and the “α-synuclein expression in the ventral midbrain” value is recorded as “significantly reduce the α-synuclein expression”.
